Experimental data reported in patent US20150329595A1 (NORTH CAROLINA STATE UNIVERSITY, published 2015).

B1: TAL11-130 bait (LexA DBD fused to the first 130 amino acids of TGMV AL1) (other, E. coli;Tomato golden mosaic virus, UniProt P0A7C2 1-202, looked up)
chain: MKALTARQQEVFDLIRDHISQTGMPPTRAEIAQRLGFRSPNAAEEHLKALARKGVIEIVSGASRGIRLLQEEEEGLPLVGRVAAGEPLLAQQHIEGHYQVDPSLFKPNADFLLRVSGMSMKDIGIMDGDLLAVHKTQDVRNGQVVVARIDDEVTVKRLKKQGNKVELLPENSEFKPIVVDLRQQSFTIEGLAVGVIRNGDWLMPSHPKRFQINAKNYFLTYPQCSLSKEESLSQLQALNTPINKKFIKICRELHEDGQPHLHVLIQFEGKYCCQNQRFFDLVSPTRSAHFHPNIQRAKSSSDVKTYIDKDGDTLVWGEFQVDGRSARGGCQT
notes: yeast two-hybrid bait; also called NT; Rep1-130
B2: AD:TAL11-352 prey (activation domain fused to full-length TGMV AL1) (other, Tomato golden mosaic virus, UniProt P03567 1-352, looked up, not shown: large carriers)
chain: MPSHPKRFQINAKNYFLTYPQCSLSKEESLSQLQALNTPINKKFIKICRELHEDGQPHLHVLIQFEGKYCCQNQRFFDLVSPTRSAHFHPNIQRAKSSSDVKTYIDKDGDTLVWGEFQVDGRSARGGCQTSNDAAAEALNASSKEEALQIIREKIPEKYLFQFHNLNSNLDRIFDKTPEPWLPPFHVSSFTNVPDEMRQWAENYFGKSSAARPERPISIIIEGDSRTGKTMWARSLGPHNYLSGHLDLNSRVYSNKVEYNVIDDVTPQYLKLKHWKELIGAQRDWQTNCKYGKPVQIKGGIPSIVLCNPGEGASYKVFLDKEENTPLKNWTFHNAKFVFLNSPLYQSSTQSS
notes: positive prey control; also called pNSB970

Columns and labels:
[1] = biological target: B2; test: yeast two-hybrid growth
[2] = biological target: T1, GUS bait (LexA DBD:beta-glucuronidase fusion) (E. coli, UniProt P0A7C2 1-202; P05804 1-603); test: yeast two-hybrid growth
T1 construct: negative control bait; also called pNSB1120

Binder	binding result [1]	binding result [2]
B1	no binding	–
B2	–	no binding
